Results on one protein are retold here after paper PMC2649980 (Proteins, 2009).

The series concerns the molecule itself. Description: SEC.

B1: D355R TRβ LBD (human thyroid hormone receptor beta ligand binding domain, a.a. 209-461, D355R), TRIAC-bound (domain or fragment, UniProt P10828 209-461, looked up)
chain: GHKPEPTDEEWELIKTVTEAHVATNAQGSHWKQKRKFLPEDIGQAPIVNAPEGGKVDLEAFSHFTKIITPAITRVVDFAKKLPMFCELPCEDQIILLKGCCMEIMSLRAAVRYDPESETLTLNGEMAVTRGQLKNGGLGVVSDAIFRLGMSLSSFNLDDTEVALLQAVLLMSSDRPGLACVERIEKYQDSFLLAFEHYINYRKHHVTHFWPKLLMKVTDLRMIGACHASRFLHMKVECPTELFPPLFLEVFED
For the protein B1, the stoichiometry N (commonly a count of units in the complex or per binding partner) was found to be 2.
